Molecular target: T1, Smc3 hinge domain fusion protein, wild type (Smc3H) (yeast, UniProt P47037 495-705)
T1 sequence: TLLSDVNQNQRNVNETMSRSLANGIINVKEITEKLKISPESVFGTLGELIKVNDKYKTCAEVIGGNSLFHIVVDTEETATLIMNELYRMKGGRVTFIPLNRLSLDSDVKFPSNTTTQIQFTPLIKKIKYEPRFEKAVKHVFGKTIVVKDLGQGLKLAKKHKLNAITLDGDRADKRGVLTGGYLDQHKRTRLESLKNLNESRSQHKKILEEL
Experiment: SEC

binding result: binds
B1: Smc1 hinge domain fusion protein, wild type (Smc1H) (domain or fragment)
chain: SANQRETMKERKLRENIAMLKRFFPGVKGLVHDLCHPKKEKYGLAVSTILGKNFDSVIVENLTVAQECIAFLKKQRAGTASFIPLDTIETELPTLSLPDSQDYILSINAIDYEPEYEKAMQYVCGDSIICNTLNIAKDLKWKKGIRGKLVTIEGALIHKAGLMTGGISGDANNRWDKEE
